We go through 4 molecules from article PMC8589989.

The target in data set [1] is T1, His-MBP-ZNF384 (human, UniProt Q8TF68-2 1-516).
T1 sequence: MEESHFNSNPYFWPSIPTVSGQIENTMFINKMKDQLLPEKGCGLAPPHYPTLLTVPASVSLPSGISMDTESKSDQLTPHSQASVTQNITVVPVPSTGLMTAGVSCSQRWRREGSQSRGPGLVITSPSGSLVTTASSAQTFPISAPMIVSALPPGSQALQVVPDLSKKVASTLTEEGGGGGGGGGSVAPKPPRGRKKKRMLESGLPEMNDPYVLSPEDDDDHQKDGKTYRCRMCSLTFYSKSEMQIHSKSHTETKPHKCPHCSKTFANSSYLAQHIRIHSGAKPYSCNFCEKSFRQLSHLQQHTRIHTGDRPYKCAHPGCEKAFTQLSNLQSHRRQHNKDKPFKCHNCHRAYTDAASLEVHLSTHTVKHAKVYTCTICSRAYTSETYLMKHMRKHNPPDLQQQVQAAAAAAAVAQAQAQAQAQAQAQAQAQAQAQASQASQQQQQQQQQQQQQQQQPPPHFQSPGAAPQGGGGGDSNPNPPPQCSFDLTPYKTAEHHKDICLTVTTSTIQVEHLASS
Description: BLI; 400 nM protein; seemingly lower affinity than ssDNA; Pull-down: 10 mM Tris pH 7.5, 150 mM KCl, 5 mM MgCl2, 0.25% Tween-20, 3.5 mM DTT, 5% glycerol, 0.1% BSA, 4 C; BLI: 10 mM Tris pH 7.5, 150 mM KCl, 5 mM MgCl2, 0.05% Tween-20, 0.1% BSA, 1 mM DTT, 298 K. The following applies: protein: recombinant, tags: His6-MBP, 24 bp duplex.

For data set [2], the target named is T1, His-MBP-ZNF384. Description: pull-down; did not show RNA binding; Pull-down: 10 mM Tris pH 7.5, 150 mM KCl, 5 mM MgCl2, 0.25% Tween-20, 3.5 mM DTT, 5% glycerol, 0.1% BSA, 4 C; BLI: 10 mM Tris pH 7.5, 150 mM KCl, 5 mM MgCl2, 0.05% Tween-20, 0.1% BSA, 1 mM DTT, 298 K. Particulars: protein: recombinant; tags: His6-MBP; label: 5' biotin; single strand.
In data set [3] the target is T1, His-MBP-ZNF384. The data set can be described thus: BLI; 400 nM protein; Pull-down: 10 mM Tris pH 7.5, 150 mM KCl, 5 mM MgCl2, 0.25% Tween-20, 3.5 mM DTT, 5% glycerol, 0.1% BSA, 4 C; BLI: 10 mM Tris pH 7.5, 150 mM KCl, 5 mM MgCl2, 0.05% Tween-20, 0.1% BSA, 1 mM DTT, 298 K. Particulars: protein: recombinant; tags: His6-MBP; label: 5' biotin; single strand.
Data set [4] concerns the target His-Ku70/Ku80 (UniProt P12956;P13010 1-609;1-732). Description: pull-down; 100 fmol Ku, without ZNF384; Pull-down: 10 mM Tris pH 7.5, 150 mM KCl, 5 mM MgCl2, 0.25% Tween-20, 3.5 mM DTT, 5% glycerol, 0.1% BSA, 4 C; BLI: 10 mM Tris pH 7.5, 150 mM KCl, 5 mM MgCl2, 0.05% Tween-20, 0.1% BSA, 1 mM DTT, 298 K. The following applies: protein: recombinant; tags: His; copies: 1;1; label: 5' biotin on strand 1; 3' overhang 20 nt (strand 1, T-rich), 24 bp duplex.

The target of data set [5] is His-Ku70/Ku80;His-MBP-ZNF384 (human?;human, UniProt P12956;P13010;Q8TF68-2 1-609;1-732;1-516, |). The data set can be described thus: pull-down; Ku binding enhanced by increasing ZNF384; Pull-down: 10 mM Tris pH 7.5, 150 mM KCl, 5 mM MgCl2, 0.25% Tween-20, 3.5 mM DTT, 5% glycerol, 0.1% BSA, 4 C; BLI: 10 mM Tris pH 7.5, 150 mM KCl, 5 mM MgCl2, 0.05% Tween-20, 0.1% BSA, 1 mM DTT, 298 K. The following applies: protein: recombinant;recombinant; tags: His;His6-MBP; copies: 1;1;1; label: 5' biotin on strand 1; 3' overhang 20 nt (strand 1, T-rich), 24 bp duplex.
Chain of His-Ku70/Ku80;His-MBP-ZNF384 (P12956 whole entry, chain 1 of 2): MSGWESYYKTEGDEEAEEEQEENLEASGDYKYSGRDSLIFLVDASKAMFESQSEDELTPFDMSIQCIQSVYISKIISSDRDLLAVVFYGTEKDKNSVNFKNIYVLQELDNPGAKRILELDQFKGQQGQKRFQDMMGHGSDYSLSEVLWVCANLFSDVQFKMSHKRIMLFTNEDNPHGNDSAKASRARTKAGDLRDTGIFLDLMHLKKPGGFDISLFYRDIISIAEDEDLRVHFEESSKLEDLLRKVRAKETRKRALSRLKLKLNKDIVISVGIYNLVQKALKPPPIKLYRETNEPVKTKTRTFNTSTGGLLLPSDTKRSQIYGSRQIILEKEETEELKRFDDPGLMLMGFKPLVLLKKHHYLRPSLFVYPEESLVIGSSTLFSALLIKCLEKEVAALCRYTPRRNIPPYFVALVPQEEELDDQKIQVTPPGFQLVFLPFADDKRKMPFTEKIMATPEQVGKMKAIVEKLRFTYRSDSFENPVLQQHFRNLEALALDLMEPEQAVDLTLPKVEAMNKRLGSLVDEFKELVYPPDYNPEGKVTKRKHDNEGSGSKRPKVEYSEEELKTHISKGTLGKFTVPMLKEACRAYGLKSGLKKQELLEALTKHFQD
Chain of His-Ku70/Ku80;His-MBP-ZNF384 (P13010 whole entry, chain 2 of 2): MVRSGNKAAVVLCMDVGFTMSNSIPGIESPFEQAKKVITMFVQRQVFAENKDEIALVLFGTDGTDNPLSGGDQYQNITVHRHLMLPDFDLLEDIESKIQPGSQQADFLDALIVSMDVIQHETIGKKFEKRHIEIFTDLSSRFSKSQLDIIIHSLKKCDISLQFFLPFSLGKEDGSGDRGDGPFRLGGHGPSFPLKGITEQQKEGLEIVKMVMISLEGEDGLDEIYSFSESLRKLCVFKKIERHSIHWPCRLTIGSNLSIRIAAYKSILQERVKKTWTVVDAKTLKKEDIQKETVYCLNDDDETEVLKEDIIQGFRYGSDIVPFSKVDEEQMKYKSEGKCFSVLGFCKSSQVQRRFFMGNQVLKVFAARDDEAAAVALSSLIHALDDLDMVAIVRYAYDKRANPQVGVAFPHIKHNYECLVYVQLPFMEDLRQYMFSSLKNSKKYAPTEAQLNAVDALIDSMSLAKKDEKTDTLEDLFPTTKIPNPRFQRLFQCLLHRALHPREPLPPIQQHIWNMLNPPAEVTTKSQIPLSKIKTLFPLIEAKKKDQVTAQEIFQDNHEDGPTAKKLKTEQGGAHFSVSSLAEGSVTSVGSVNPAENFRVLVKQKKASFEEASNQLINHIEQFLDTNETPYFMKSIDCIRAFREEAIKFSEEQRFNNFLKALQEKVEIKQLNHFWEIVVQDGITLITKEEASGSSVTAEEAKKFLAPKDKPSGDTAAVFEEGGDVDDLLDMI

Chain of His-Ku70/Ku80 (P12956 whole entry, chain 1 of 2): as the sequence (P12956 whole entry, chain 1 of 2) above
Chain of His-Ku70/Ku80 (P13010 whole entry, chain 2 of 2): as the sequence (P13010 whole entry, chain 2 of 2) above

B1: 5' overhang DNA (dsDNA)
DNA 1: TTCTTTTTTTTTCTTTTTCTGCGATCATGACGTAGACGATAGCG
DNA 2: CGCTATCGTCTACGTCATGATCGC
In the case of B1, the binding result in data set [1] (label: 5' biotin on strand 2, 5' overhang 20 nt (strand 1, T-rich)) is reported as “binds”. Take GCGAUCAUGACGUAGACGAUAGCGUUCUUUUUUUUUCUUUUUCU (ssRNA) [RNA U-strand]: the binding result in data set [2] is listed as “no binding”. Turning to GCGATCATGACGTAGACGATAGCGTTCTTTTTTTTTCTTTTTCT (ssDNA) [ssDNA T-strand (ssDNA(T))], in data set [3], the binding result is on record as “binds”.

B2: 3' overhang DNA (dsDNA)
DNA 1: GCGATCATGACGTAGACGATAGCGTTCTTTTTTTTTCTTTTTCT
DNA 2: CGCTATCGTCTACGTCATGATCGC
For the molecule B2, the binding result in data set [4] is given as “binds”; in data set [5], “binds”; in data set [1] (label: 5' biotin on strand 1, 3' overhang 20 nt (strand 1, T-rich)), “binds”.
